Article PMC3501500, “Conformational Selection Underlies Recognition of a Molybdoenzyme by Its Dedicated Chaperone” (PLoS ONE, 2012)

Tests used:
NarG(1–15) peptide = biological target: T1, NarG(1–15) peptide (Escherichia coli, UniProt P09152); settings: 2 µM NarJT, 50 mM Tris-HCl pH 7.5, 1 mM MgCl2, 296 K; peptide stock 50 µM
T1 sequence (P09152 whole entry, looked up): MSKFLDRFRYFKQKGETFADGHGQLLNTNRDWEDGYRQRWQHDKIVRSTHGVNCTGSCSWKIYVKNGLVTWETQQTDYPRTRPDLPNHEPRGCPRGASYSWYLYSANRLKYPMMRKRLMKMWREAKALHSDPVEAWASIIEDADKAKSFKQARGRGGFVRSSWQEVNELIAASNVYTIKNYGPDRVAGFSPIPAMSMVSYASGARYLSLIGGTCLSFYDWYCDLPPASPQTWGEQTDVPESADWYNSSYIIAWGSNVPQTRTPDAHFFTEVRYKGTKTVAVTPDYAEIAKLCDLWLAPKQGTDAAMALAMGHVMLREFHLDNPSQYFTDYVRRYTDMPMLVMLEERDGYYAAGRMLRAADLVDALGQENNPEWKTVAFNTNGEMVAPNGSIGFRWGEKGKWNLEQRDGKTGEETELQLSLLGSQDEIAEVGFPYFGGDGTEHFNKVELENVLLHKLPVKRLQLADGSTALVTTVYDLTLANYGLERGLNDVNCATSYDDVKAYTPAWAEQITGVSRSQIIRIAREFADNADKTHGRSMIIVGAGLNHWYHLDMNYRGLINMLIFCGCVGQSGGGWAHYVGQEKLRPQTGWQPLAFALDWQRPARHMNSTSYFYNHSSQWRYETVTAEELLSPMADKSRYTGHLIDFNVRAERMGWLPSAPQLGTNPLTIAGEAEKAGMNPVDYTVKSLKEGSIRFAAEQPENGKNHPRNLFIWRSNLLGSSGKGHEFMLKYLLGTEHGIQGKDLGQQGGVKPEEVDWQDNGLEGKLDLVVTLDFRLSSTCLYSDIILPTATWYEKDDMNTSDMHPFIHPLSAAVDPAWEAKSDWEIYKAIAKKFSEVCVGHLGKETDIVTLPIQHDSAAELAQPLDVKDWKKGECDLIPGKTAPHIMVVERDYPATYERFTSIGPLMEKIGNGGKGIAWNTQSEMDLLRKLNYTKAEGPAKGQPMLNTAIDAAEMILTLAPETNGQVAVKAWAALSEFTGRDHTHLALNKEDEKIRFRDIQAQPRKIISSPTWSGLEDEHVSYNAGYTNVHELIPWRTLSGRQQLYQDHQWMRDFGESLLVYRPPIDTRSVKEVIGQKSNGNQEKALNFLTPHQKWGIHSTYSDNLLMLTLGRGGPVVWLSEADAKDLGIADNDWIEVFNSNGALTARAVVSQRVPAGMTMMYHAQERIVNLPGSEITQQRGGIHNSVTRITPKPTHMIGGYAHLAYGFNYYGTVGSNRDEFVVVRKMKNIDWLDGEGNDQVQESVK
Procedure: Tryptophan fluorescence spectroscopy
Increasing concentrations of NarG(1–15) peptide at 50 µM (initial concentration) were then added and the emission fluorescence was scanned. Excitation was at 285 nm and emission was recorded from 310 to 410 nm with excitation and emission band-passes at 2 nm. […] Dissociation constants were calculated by plotting relative fluorescence peak integration against ligand concentration and curve-fitting using Origin software.
Indicated values are the average of at least three independent measurements.

NarJ = settings: NMR; isolated NarG(1–15) peptide vs NarJ-bound; ref [18]; cited from earlier work

## NarG(1–15) peptide: N-terminal NarG peptide, first 15 residues, chemically synthesized and purified by Synprosis (MSKFLDRFRYFKQKG; UniProt P09152 1-15, looked up, fragment)
NarG(1–15) peptide
  maximal decrease of the tryptophan fluorescence of NarJT upon peptide addition: 30%
NarJ
  structure of peptide upon NarJ binding (in words): remains unchanged upon NarJ binding
